The text below walks through data of patent US10969392B2, “Methods and systems for predicting response to immunotherapies for treatment of cancer” (Vanderbilt University, priority 2015, dated 2021).

Holding throughout (format): cell-based, human
Test [1] concerns melanoma cell lines. In words: IFNγ stimulation of melanoma cell lines, Western blot and phospho-flow (STAT1, STAT5, CIITA). As to the method:
(§1) FIGS. 3A-F show characterization of MHC-II(+) melanoma cell lines. Melanoma cell lines were treated with IFNy for 24 h before collection and live-cell staining and flow cytometry analysis for (A) MHC-I (HLA-A/B/C), (B) MHC-II (HLA-DR), and (C) PD-L1. Bars represent mean ±S.E.M. for at least three experiments (D) Representative flow plots from (C). (E) Western blot analysis of melanoma cell lines after 24 or 48 h of IFNy stimulation. (F) Phosphorylation of STAT1 (top row) and STAT5 (bottom row) in melanoma cell lines at 15 min after IFNy stimulation. Histograms were coloured according to the arcsinh transformed ratio or MFI medians relative to the table minimum value.
Immunoblotting Immunoblotting was performed as previously described^32 Briefly, cells were washed in cold phosphate-buffered saline, collected and lysed in 1×RIPA buffer (50 mM Tris (pH 7.4), 1% NP-40, 150 mM NaCl, 1 mM EDTA, 0.1% SDS, 0.25% sodium deoxycholate, 5 mM NaF, 5 mM Na3VO4, 10% glycerol, […] phenylmethyl-sulphonylfluoride and protease inhibitors) for 30 min on ice. Lysates were sonicated for 2-3 s to shear DNA and cleared by centrifugation at 13,200 r.p.m. for 15 min. Protein concentrations of the lysates were determined by BCA assay (Bio-Rad, Hercules, Calif.). Samples were separated by SDS-PAGE and transferred to nitrocellulose membrane. Membranes were blocked with 5% non-fat dry milk or 5% bovine serum albumin in tris-buffered saline with 0.1% Tween-20 for 1 h at room temperature and then incubated overnight at 4° C. with the appropriate antibody as indicated. Following incubation with appropriate horseradish peroxidase-conjugated secondary antibodies, proteins were visualized using an enhanced chemiluminescence detection system. […]
Phospho-flow cytometry. […] Samples were analyzed on a LSRII system (BD Biosciences). […]

In test [2] the test system is melanoma cell lines. In words: IFNγ stimulation of melanoma cell lines, flow cytometry for HLA-DR and PD-L1. As to conditions: for HLA-DR surface expression: 100 ng/mL; for HLA-DR expression by flow cytometry: Example 5. As to the method: as §1
FIGS. 4A-D show graphs illustrating mean expression levels of MHC-I, MHC-II, and PD-L1 at baseline and after IFNy stimulation. Melanoma cell lines were treated with 100 ng IFNy for 24 hr (shown as percentage positive in FIGS. 2A-C) prior to harvest and live-cell staining and flow cytometry analysis for (A) MHC-I/HLA-A/B/C, (B) MHC-II/HLA-DR, and (C) PD-L1. Bars represent mean fluorescence intensity ±SEM for 3 experiments. (D) Histograms of HLA-DR surface expression over an extended (24-72 hr) IFNy treatment, as assessed by flow cytometry.
Cell surface expression mirrored mRNA expression patterns; MHC-I (HLA-A/B/C) was expressed ubiquitously among all cell lines under both basal and stimulated conditions, while MHC-II (HLA-DR) was present only on the intermediate/Ib (SKMEL5 and SKMEL28) and high/Ia cell lines (WM115 and A375; FIGS. 3A-C and 4A-D). […] The high (Ia) WM115 cell line was essentially 100% positive for HLA-DR at both basal and stimulated conditions.
Standard Flow Cytometry. Flow cytometry was performed using the following antibodies: HLA-DR/PE-Cy7 (Biolegend, clone L243. 1:20). CD274/PD-L1/APC (Biolegend, clone 29E.2A3, 1:200) and HLA-A/B/C-Alexa Fluor488 (1:100, Biolegend, clone W6/32) mouse MHC-II (I-A/I-E 1:20 Biolegend, clone M5/114.15.2). DAPI was used as a viability dye. Samples were analyzed on an Aria III laser system (BD Biosciences)
Cell and tumor culture. SKMEL-28 and WM115 cell lines were obtained from Dr. Kimberly Dahlman (Vanderbilt University), CHL-1 and HMCB melanoma cell lines were obtained from the laboratory of William Pao (Vanderbilt University). Cell line nature was not directly authenticated, but protein marker expression was consistent with published HLA-DRA mRNA expression patterns (CCLE). Cell lines were confirmed mycoplasma-free and cultured in DMEM containing 10% FBS. Stimulation with recombinant human IFNγ (R&D Systems) was performed at 100 ng/mL. For PDX models and ex-vivo organotypic culture, tumors were freshly resected and sectioned using an Alto tissue matrix sectioner (Roboz Surgical, Gaithersburg, Md.).
Methods. MHC-I/II mRNA was profiled across 60 MEL cell lines. The transcriptional characteristics of MHC-II+ cell lines were analyzed by Gene Set Analysis. Cell surface expression of MHC-I and MHC-II was confirmed by flow cytometry (FC) in a subset of cell lines under basal and stimulated (IFNγ) conditions. In 26 tumor samples from αPD-1 treated MEL patients, immunohistochemistry (IHC) was performed for HLA-DR (MHC-II) or HLA-A (MHC-I), SOX10, CD4 and CD8. IHC results were correlated with response and progression-free survival (PFS).

The subject of test [3] is PDX tumors from melanoma patients PT1 and PT2. The test can be described thus: Ex vivo organotypic culture of PDX tumour slices with or without IFNγ, Western blot for HLA-DR. Conditions: PT1 (anti-PD-1 non-responder) and PT2 (responder) PDX, 24-48 h. The text has this: FIGS. 6A-D show Ex vivo culture of tumours derived from anti-PD-1-responding and non-responding patients identifies heterogeneity in interferon response. (A) Patient tumour blocks stained for HLA-DR (brown) and SOX10 (pink) at low (scale bar, 500 um) and high magnification (scale bar, […]); PT1: anti-PD-1 non-responder and PT2: anti-PD-1 responder. (B) Experimental schema. (C) Schema and images of PDX tissue sections (ex vivo organotypic culture). (D) Western blot analysis of tissue sections cultured in the presence or absence of IFNy for 24-48 h.
To test this hypothesis, patient-derived xenograft (PDX) models were utilized from the tumor resections of two melanoma patients who subsequently received anti-PD1 therapy; patient 1 (PT1; non-responder, 0% HLA-DR-positive, class II/III) and patient 2 (PT2; partial responder, heterogeneous 15% HLA-DR-positive, class Ib) (FIG. 6A). […] The resected tumors from PT1 and PT2 were serially transplanted to athymic nu/nu mice, which are highly deficient in functional T cells, ruling out a possible source of IFNγ (FIG. 6B). […] Thus, HLA-DR may be a marker of IFNγ activity in the microenvironment of some (but not all) tumors.
Cell and tumor culture. SKMEL-28 and WM115 cell lines were obtained from Dr. Kimberly Dahlman (Vanderbilt University), CHL-1 and HMCB melanoma cell lines were obtained from the laboratory of William Pao (Vanderbilt University). […]
A general note: In western blotting, separated proteins are transferred to a membrane and probed.

“Also recorded” adds a separate entry of the source.

B1: IFNγ: recombinant human IFNγ (R&D Systems) used at 100 ng/mL to stimulate melanoma cell lines and tumour slices (protein, UniProt P01579 24-161, looked up)
Interferon gamma: QDPYVKEAENLKKYFNAGHSDVADNGTLFLGILKNWKEESDRKIMQSQIVSFYFKLFKNFKDDQSIQKSVETIKEDMNVKFFNSNKKKRDDFEKLTNYSVTDLNVQRKAIHELIQVMAELSPAAKTGKRKRSQMLFRG
Take B1: the CIITA expression result in the test with melanoma cell lines [1] (Western blot, 24 or 48 h stimulation) is on record as “only induced in HLA-DR+Ia/Ib cells”. For the same molecule, the STAT1 activation result in the test on melanoma cell lines [1] (all cell lines, Western blot 24 or 48 h, phospho-flow 15 min) is listed as “robustly activated”. The STAT5 activation entry with melanoma cell lines [1] (phospho-flow, 15 min stimulation, 100 ng/mL) is given as “preferentially activated by IFNγ in MHC-II(−) cell lines”. Further, the HLA-DR surface expression result was “No significant increase” with melanoma cell lines [2] (CHL-1 or HMCB cells, up to 72 hrs) and “potently induced” in the test on melanoma cell lines [2] (SKMEL28 (intermediate/Ib), 25% positive at baseline, 24 h). Moreover, the “HLA-DR expression by flow cytometry” value in the test on melanoma cell lines [2] (MHC-II+ (mRNA) cell lines) was “constitutive and inducible”; in the test on melanoma cell lines [2] (MHC-II− cells), “did not express or induce”. The PD-L1 expression entry with melanoma cell lines [2] (all cell lines tested, 24 h stimulation) was “significantly upregulated; also recorded: potently induced”. Also, in test [3], the “HLA-DR upregulation in cultured tissue slices” value is “only the PT2 PDX model (anti-PD-1 responder) upregulated HLA-DR”.
